Experiments:
[1] = molecular target: T1, Arp2/3 complex; test: Actin polymerization assay comparing FL-WASP/N-WASP and truncated forms of WASP; assay type: biochemical, human; conditions: without activators, FIG. 7
T1 construct: from tissue
Experimental: 1. A cellular extract containing Arp2/3 complex was prepared from an Arp2/3 source such as human platelets (see, e.g., U.S. Provisional Application No. 60/578,969, filed Jun. 10, 2004; Welch and Mitchison (Meth. Enzymology 298:52-61,1988); and Higgs, H. N. et al. (Biochemistry 38:15212-15222, 1999), all of which are incorporated herein by reference in their entirety for all purposes).
Samples containing candidate agents (individually or as mixtures) are placed into wells on a multi-well plate. Mix 1 is added to each of the wells and mixed with the candidate agent. A sample of Mix 2 is then introduced into each well and the resulting mixture thoroughly mixed. Typically, Mix 1 and Mix 2 are mixed in 1:1 ratio (e.g., 50 μl each of Mix 1 and Mix 2).
Actin polymerization is measured as a function of time by exciting pyrene at 365 nm and by detecting an increase in fluorescence emission at 407 nm, or by exciting acrylodan at 405 nm and by detecting an increase in fluorescence emission at 460 nm. The change in fluorescence over time is utilized to determine a fluorescence parameter (e.g., maximal velocity, time to half maximal fluorescence intensity, or area under the curve of a plot of fluorescence versus time; see e.g., FIGS. 5A-5F).
Arp2/3 was purified as described in Example 1. […]

[2] = molecular target: Arp2/3; test: Activities of WASP/N-WASP proteins (Table 4); assay type: biochemical
Text: The term “variant” or “analogue” generally refers to proteins that are functional equivalents to a native sequence that have similar amino acid sequences and retain, to some extent, one of the activities of the corresponding native protein. Variants/analogues include fragments that retain one or more activities of the corresponding native protein. Examples of WASP and N-WASP activity include, but are not limited to, capacity to: 1) bind Arp2/3 and actin; 2) activate the actin nucleation activity of Arp2/3 (descriptions of assays to detect nucleation activity are provided below); 3) bind an upstream regulator; 4) be regulated by one or more upstream regulators, thereby rendering the WASP or N-WASP protein able to activate the nucleation activity of Arp2/3; and 5) bind downstream regulators initiating signal transduction cascades. Some of the WASP and N-WASP proteins that are provided are able to recapitulate the full activity of WASP or N-WASP, which means that these proteins have all five of the activities just listed. […]
A third class of NPF proteins that can be utilized in some assays include WASP, N-WASP and SCAR proteins that include the WH1 domain but in which the PolyPro region is (e.g., deleted). A fourth class of NPF proteins that can be utilized in some assays are WASP, N-WASP and SCAR deletion mutants in which the PolyPro region is maintained but an N-terminal region (e.g., WH1 domain) is at least partially removed. Some proteins in this class are ones that include the B, CRIB/GBD (WASP and N-WASP), PolyPro and VCA domains, but in which some or all of the WH1 has been removed. One specific example is 98N-WASP, which includes amino acids 98-501 of SEQ ID NO:4. Another specific example is the 105WASP protein, which includes amino acids 105-501 of SEQ ID NO:2 (see FIG. 4B).
As indicated in this table, specific examples of fusion proteins that can be utilized include those that include a segment that encodes full-length WASP or N-WASP, including: Myc-WASP-TAP (SEQ ID NO:14); and Myc-N-WASP-TAP (SEQ ID NO: 16). Examples of fusion proteins that include a WASP or N-WASP deletion mutant domain include: GST-105WASP (SEQ ID NO:18); Myc-105WASP-TAP (SEQ ID NO:20); GST-tev-98N-WASP (SEQ ID NO:22); and Myc-98N-WASP-TAP (SEQ ID NO:24). The TAP tag in these particular fusion proteins has the general structure CBP-tev-ProtA (SEQ ID NO:36). Fusion proteins such as those listed in Table 4 can in some instances be utilized directly, or after one or both of the C- and N-terminal tags are removed. For example, the fusion proteins listed in Table 4 as having a TAP tag can be used once the TAP tag has been cleaved off and/or after the C-terminal tag has been removed.

[3] = Solubility of purified full-length WASP / N-WASP; assay type: physicochemical; conditions: purified TAP-tag protein from 293 cells

B1: FL-N-WASP: full length human N-WASP (SEQ ID NO:4), nucleation promoting factor (protein, listed as Homo sapiens)
chain: MSSVQQQPPPPRRVTNVGSLLLTPQENESLFTFLGKKCVTMSSAVVQLYAADRNCMWSKKCSGVACLVKDNPQRSYFLRIFDIKDGKLLWEQELYNNFVYNSPRGYFHTFAGDTCQVALNFANEEEAKKFRKAVTDLLGRRQRKSEKRRDPPNGPNLPMATVDIKNPEITTNRFYGPQVNNISHTKEKKKGKAKKKRLTKADIGTPSNFQHIGHVGWDPNTGFDLNNLDPELKNLFDMCGISEAQLKDRETSKVIYDFIEKTGGVEAVKNELRRQAPPPPPPSRGGPPPPPPPPHNSGPPPPPARGRGAPPPPPSRAPTAAPPPPPPSRPSVAVPPPPPNRMYPPPPPALPSSAPSGPPPPPPSVLGVGPVAPPPPPPPPPPPGPPPPPGLPSDGDHQVPTTAGNKAALLDQIREGAQLKKVEQNSRPVSCSGRDALLDQIRQGIQLKSVADGQESTPPTPAPTSGIVGALMEVMQKRSKAIHSSDEDEDEDDEEDFEDDDEWED
modifications: (1)..(505) FL-N-WASP
With B1 the “stimulation of actin polymerization by the protein alone (in words)” value [1] was “weakly stimulate actin polymerization”, the “Activate Arp2/3?” value [2] was “Yes” and the “Regulated By Which Upstream Regulators?” value [2] was “Cdc42, PIP2, Nck, Rac1”. For the same molecule, the “solubility (in words)” value [3] was “completely soluble”.

— patent US20060003399A1, “High throughput actin polymerization assay” (Cytokinetics, Inc., priority 2004, published 2006)
